# In IntAct's records for PubMed 18547396:
# B1: Protein TIFY 10A (Arabidopsis thaliana (Mouse-ear cress)), Q9LMA8 (parent)
# chain: MSSSMECSEFVGSRRFTGKKPSFSQTCSRLSQYLKENGSFGDLSLGMACKPDVNGTLGNSRQPTTTMSLFPCEASNMDSMVQDVKPTNLFPRQPSFSSSSSSLPKEDVLKMTQTTRSVKPESQTAPLTIFYAGQVIVFNDFSAEKAKEVINLASKGTANSLAKNQTDIRSNIATIANQVPHPRKTTTQEPIQSSPTPLTELPIARRASLHRFLEKRKDRVTSKAPYQLCDPAKASSNPQTTGNMSWLGLAAEI
# partner: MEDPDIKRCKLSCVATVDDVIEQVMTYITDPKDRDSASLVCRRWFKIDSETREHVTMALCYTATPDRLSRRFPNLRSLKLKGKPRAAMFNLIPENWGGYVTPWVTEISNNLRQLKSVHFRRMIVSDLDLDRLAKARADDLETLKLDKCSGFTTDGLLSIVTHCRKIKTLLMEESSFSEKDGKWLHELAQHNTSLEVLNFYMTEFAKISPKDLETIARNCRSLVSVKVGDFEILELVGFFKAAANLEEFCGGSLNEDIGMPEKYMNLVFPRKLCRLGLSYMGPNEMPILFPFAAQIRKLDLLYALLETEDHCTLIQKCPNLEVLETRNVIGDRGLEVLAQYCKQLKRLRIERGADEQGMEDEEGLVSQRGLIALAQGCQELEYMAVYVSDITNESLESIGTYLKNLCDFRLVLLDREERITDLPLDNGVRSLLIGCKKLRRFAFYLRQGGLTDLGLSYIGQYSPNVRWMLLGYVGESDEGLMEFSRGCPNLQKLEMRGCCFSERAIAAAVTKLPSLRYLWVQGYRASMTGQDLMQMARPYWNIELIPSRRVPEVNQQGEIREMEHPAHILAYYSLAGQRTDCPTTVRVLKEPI
# B2: Protein TIFY 7 (Arabidopsis thaliana (Mouse-ear cress)), Q8W4J8 (parent)
# chain: MERDFLGLSDKQYLSNNVKHEVNDDAVEERGLSTKAAREWGKSKVFATSSFMPSSDFQEAKAFPGAYQWGSVSAANVFRRCQFGGAFQNATPLLLGGSVPLPTHPSLVPRVASSGSSPQLTIFYGGTISVFNDISPDKAQAIMLCAGNGLKGETGDSKPVREAERMYGKQIHNTAATSSSSATHTDNFSRCRDTPVAATNAMSMIESFNAAPRNMIPSVPQARKASLARFLEKRKERLMSAMPYKKMLLDLSTGESSGMNYSSTSPT
# partner: B1 partner
# Variants of: B1
# Details: with coi1_arath COI1, O04197
row,effect of a mutation on the interaction,Variant
1,disrupting interaction,R205A
2,disrupting interaction,R206A
3,disrupting interaction,R205A;R206A

# Variants of: B2
# Details: with coi1_arath COI1, O04197
row,effect of a mutation on the interaction,Variant
1,disrupting interaction,R223A
2,disrupting interaction,K224A
3,disrupting interaction,R223A;K224A
